The source of these data is the supplement of paper PMC10567573.

The series is described as follows: protein stability index of a GFP-peptide fusion (GPS, HEK-293T) (PSI 1-6); higher = more stable. Conditions: c terminus: a fixed tail appended.

± gives the standard deviation.
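Also: 24-mer peptide tiles fused after GFP, lentivirally expressed, FACS-sorted into six equal bins by GFP/DsRed ratio, decoded by Illumina sequencing, PSI is the read-weighted mean bin number.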

EGNSMRCGRKLAKDGEYCWRWTGF [GMCL1]: the protein stability index reads like this: (treatment: DMSO) 2.49 ± 0.22; (treatment: MLN4924 1 uM, 8 h) 2.11 ± 0.14.
Turning to EHLPVKPDTMEKLRTHIDAIILAL [DENND6A], the protein stability index came out at 2.64 ± 0.3 (treatment: DMSO) and 2.63 ± 0.51 (treatment: MLN4924 1 uM, 8 h).
The like results for EILTCGRDGEPEPMQKLQDLVNRT [RBBP5] were, in that order, 4.01 ± 0.2 and 3.78 ± 0.25.
On to EIPKNCVVAAVGKELIIFRLVAPT [WDR41], for which the protein stability index is 2.69 ± 0.6 (treatment: DMSO) and 2.28 ± 0.43 (treatment: MLN4924 1 uM, 8 h).
For EIVNYEPLGLEADMWSIGVITYIL [DAPK3], in that order: 2.35 ± 0.48 and 1.98 ± 0.27.
Regarding EKDWGLEGYVWRGSQLEDQALRGL [ZSWIM9], the protein stability index by setting is: (treatment: DMSO) 2.97 ± 0.48; (treatment: MLN4924 1 uM, 8 h) 3.62 ± 0.58.
For EKEESRREAEKQNYLAEHCPPLHI [TNNI2], in that order: 4.93 ± 0.17 and 4.94 ± 0.22.
The like results for ELCCVAELDNPMQQKWTKPARAGS [C2CD2L] were, in that order, 3.37 ± 0.39 and 3.6 ± 0.2.
For ELGLLIFFLFIGVILFSSAVYFAE [KCNA1], the protein stability index reads like this: (treatment: DMSO) 2.04 ± 0.53; (treatment: MLN4924 1 uM, 8 h) 2.06 ± 0.37.
The like results for ELKLEQQEAAERESKLLRDLSAAN [LRRC45] were, in that order, 4.62 ± 0.18 and 4.77 ± 0.23.
The like results for ELTFSYIAFDGVVGSGGRRDSTAR [RTN2] were, in that order, 3.17 ± 0.079 and 3.15 ± 0.28.
The like results for ELVSADVIDLFDEQGLSALHLAAQ [RIPK4] were, in that order, 3.02 ± 0.78 and 3.56 ± 0.4.
As for EMDMVVFRPEMKKHSWCLKRKNPP [N4BP2L1], the protein stability index stood at 3.25 ± 0.31 (treatment: DMSO) and 3.25 ± 0.18 (treatment: MLN4924 1 uM, 8 h).
The like results for EMLGRKCLTLATAVVQLYLALPPG [WAS] were, in that order, 3.02 ± 0.3 and 3.3 ± 0.55.
For EMRIPALNAYMKSLLSLPVWVLMD [NCF4], in that order: 3.26 ± 0.95 and 2.92 ± 0.55.
For EMSEKRGPTSSNPRKRHREDSDVE [MLH1], in that order: 5.49 ± 0.44 and 5.49 ± 0.14.
Turning to ENFKGLAIPYLEHIIHVWEETGSR [VPS39], the protein stability index runs as follows: (treatment: DMSO) 2.52 ± 0.32; (treatment: MLN4924 1 uM, 8 h) 2.48 ± 0.4.
The like results for ENILMCVDDAYVRRMAAEATEWQK [SRPK2] were, in that order, 3.52 ± 0.26 and 3.55 ± 0.17.
For ENVKDVPFGFQTVTSDVNKLSSFY [SERPINB5], in that order: 2.74 ± 0.15 and 3.09 ± 0.46.
The like results for ENVLAALEGLNLSILKAMGKTKKD [NECAB1] were, in that order, 3.12 ± 0.12 and 3.31 ± 0.18.
Consider EPHPRPLLQRELMVPGTRHSAVLR [TNXB], for which the protein stability index came out at 3.93 ± 0.42 (treatment: DMSO) and 4.2 ± 0.59 (treatment: MLN4924 1 uM, 8 h).
Turning to EPLQALLERASATLQDLVFDECGI [PRAME], the protein stability index came to 2.25 ± 0.2 (treatment: DMSO) and 2.67 ± 0.18 (treatment: MLN4924 1 uM, 8 h).
Regarding EQKLRACLEGSINEHSAHCPHTPE [RPAIN], the protein stability index is, setting by setting: (treatment: DMSO) 4.92 ± 0.28; (treatment: MLN4924 1 uM, 8 h) 4.99 ± 0.23.
As for EQKTGTEAEAADSGAVGARRFLLC [MFSD9], the protein stability index by setting is: (treatment: DMSO) 4.48 ± 0.15; (treatment: MLN4924 1 uM, 8 h) 4.42 ± 0.1.
For EQPFIPVEVLVDLFLKEGACDELF [PRAME], in that order: 2.39 ± 0.16 and 2.39 ± 0.35.
The like results for EQRTIQAQKESLQNQHHSASLQAS [APBB1IP] were, in that order, 5.16 ± 0.19 and 4.99 ± 0.18.
For EQVRFLMKSYSFLREAVPGILRAR [SOAT2], in that order: 1.85 ± 0.62 and 2.1 ± 0.51.
On to ERDREREPEAASSRGSPVRVKREF [USP39], for which the protein stability index amounted to 5.4 ± 0.26 (treatment: DMSO) and 5.39 ± 0.17 (treatment: MLN4924 1 uM, 8 h).
For ERIEARLATLEGDDPSLRKTHSSP [PSD2], in that order: 5.08 ± 0.37 and 5.09 ± 0.18.
For ERPRMNANSLLASPTGLSPYLRFG [CRY1], in that order: 2.89 ± 0.21 and 2.98 ± 0.22.
For ERYRHEIAHDGQRIYVLGGGTSWT [KLHDC10], in that order: 2.83 ± 0.48 and 2.79 ± 0.23.
Regarding ESEDCKLPSNPCATTNACEKPIGS [KRT33B], the protein stability index is 5.48 ± 0.097 (treatment: DMSO) and 5.34 ± 0.18 (treatment: MLN4924 1 uM, 8 h).
For the sequence ESFRDLQLRLLQAPLQADLTEQVW [SCARA5], the protein stability index by setting is: (treatment: DMSO) 2.59 ± 0.089; (treatment: MLN4924 1 uM, 8 h) 3.1 ± 0.4.
ESLMALCTDFCLRNLDGTLGYLLD [ZER1] had a protein stability index (treatment: DMSO) of 2.71 ± 0.4 and a protein stability index (treatment: MLN4924 1 uM, 8 h) of 2.94 ± 0.39.
For ESPIPEDKDRRFVFSYFLATDMIS [EFHC1], in that order: 2.33 ± 0.28 and 2.23 ± 0.29.
For ESPSLTSTPVCSQKVVVTTPLHRD [MYBL2], in that order: 4.83 ± 0.2 and 4.5 ± 0.11.
The like results for ESSQTDLKLVAHPRAKSKVWKYFG [ZBED1] were, in that order, 3.02 ± 0.31 and 3.42 ± 0.27.
On to ESTTKESSEASQLEDAAGGDSASE [FBXO34], for which the protein stability index reads like this: (treatment: DMSO) 5.61 ± 0.34; (treatment: MLN4924 1 uM, 8 h) 5.71 ± 0.12.
Regarding ESVVKSEDFSLPAYMDRRDHPLPE [COX4I1], the protein stability index amounted to 5.1 ± 0.17 (treatment: DMSO) and 4.82 ± 0.098 (treatment: MLN4924 1 uM, 8 h).
The like results for ETHLRHMKALLGSYAHSVEDTHVQ [FCHO1] were, in that order, 3.49 ± 0.5 and 3.35 ± 0.29.
For ETIKCVVVGDNAVGKTRLICARAC [RHOBTB1], in that order: 2.39 ± 0.2 and 2.44 ± 0.21.
The like results for ETKKVLGLQDTITAELVVIEDAAE [PALM] were, in that order, 4.92 ± 0.35 and 4.78 ± 0.32.
As to ETLQPSVWFGGREHVLMFAKLALY [TMEM175], the protein stability index by setting is: (treatment: DMSO) 2.52 ± 0.46; (treatment: MLN4924 1 uM, 8 h) 2.44 ± 0.43.
The like results for ETRDWGGAQFEGEKGRALQIRDWR [ZSWIM9] were, in that order, 3.63 ± 0.32 and 3.84 ± 0.15.
The like results for ETTERMKCLYYLYATLDLNAVKYV [PDS5B] were, in that order, 2.88 ± 0.3 and 3.12 ± 0.47.
The like results for ETVADVRTLPNASTVDNIRSIFGN [MLH1] were, in that order, 4.21 ± 0.18 and 4.19 ± 0.11.
For ETVQTWIELLTGETWNPFKLQYQL [GOLPH3L], the protein stability index turned out to be 2.65 ± 0.6 (treatment: DMSO) and 2.74 ± 0.71 (treatment: MLN4924 1 uM, 8 h).
For ETVVNRIAAGEVIQRPANAIKEMI [MLH1], in that order: 3.17 ± 0.17 and 3.36 ± 0.19.
As to EVCCTSIVYATEKKQTKVEFPEAR [KCTD13], the protein stability index by setting is: (treatment: DMSO) 3.88 ± 0.34; (treatment: MLN4924 1 uM, 8 h) 3.9 ± 0.28.
For the sequence EVDEEGFTVRPDVTQNSTAEPSRF [FCHO1], the protein stability index is 5.26 ± 0.13 (treatment: DMSO) and 5.26 ± 0.2 (treatment: MLN4924 1 uM, 8 h).
For EVFEGREDSILGDPKKLLTQHFVQ [MAGEA3], in that order: 3.42 ± 0.49 and 3.29 ± 0.4.
EVMKCIVEVISDTLSKPSPMPVSQ [CHGA]: the protein stability index by setting is: (treatment: DMSO) 2.55 ± 0.18; (treatment: MLN4924 1 uM, 8 h) 2.48 ± 0.4.
Regarding EVSSIQVRRKPQHGVCSQLLGNYR [SERPINB9P1], the protein stability index reads like this: (treatment: DMSO) 2.84 ± 0.38; (treatment: MLN4924 1 uM, 8 h) 2.94 ± 0.29.
For EWVISTGHDKCVSWMCTRSGNMLG [WDFY1], in that order: 2.09 ± 0.37 and 2.01 ± 0.41.
Take EYLENQVIKDKDDSVDAQNICHVW [RNF180]: the protein stability index by setting is: (treatment: DMSO) 3.42 ± 0.26; (treatment: MLN4924 1 uM, 8 h) 3.57 ± 0.27.
In the case of FAHSSNLLRHQRIHTGERPYKCPE [ZNF263], the protein stability index worked out at 2.99 ± 0.28 (treatment: DMSO) and 3.35 ± 0.36 (treatment: MLN4924 1 uM, 8 h).
The like results for FDGPEAWGVCEPQREEVEERMWAA [ZER1] were, in that order, 3.43 ± 0.71 and 4 ± 0.53.
For FEAPPLQGQAAAPASGSGADSEPA [TRIM55], in that order: 5.65 ± 0.28 and 5.53 ± 0.1.
On to FEDLPLQEPQSPQKLNPGFDLAKG [PLAGL1], for which the protein stability index came out at 5.03 ± 0.14 (treatment: DMSO) and 4.83 ± 0.19 (treatment: MLN4924 1 uM, 8 h).
Consider FESLPENASHKLEVRLVPVSFEDP [ATE1], for which the protein stability index (treatment: DMSO) was 3.68 ± 0.13 and the protein stability index (treatment: MLN4924 1 uM, 8 h) was found to be 3.68 ± 0.31.
Take FFFSSPGNNNGTSIEDGQIPEIIF [BTBD1]: the protein stability index amounted to 2.39 ± 0.22 (treatment: DMSO) and 2.44 ± 0.33 (treatment: MLN4924 1 uM, 8 h).
Regarding FHGWKYMFGLVIPLGVLQAIAMYF [SLC2A12], the protein stability index by setting is: (treatment: DMSO) 2.31 ± 0.46; (treatment: MLN4924 1 uM, 8 h) 2.6 ± 0.56.
The like results for FKKGKNPTGLLALQQIADFMTTNV [ADD1] were, in that order, 2 ± 0.23 and 2.61 ± 0.34.
For FKRSTGTWHHTKPLLPSDLRRTGC [GAN], in that order: 2.78 ± 0.22 and 2.82 ± 0.39.
With FKTYISPWERAMGVDPQQKMELGI [MYOZ1], the protein stability index reads like this: (treatment: DMSO) 2.42 ± 0.25; (treatment: MLN4924 1 uM, 8 h) 2.31 ± 0.38.
The like results for FLLLIVFYTAITKKIFKSHLKSSR [P2RY14] were, in that order, 2.69 ± 0.42 and 2.52 ± 0.65.
The like results for FLMGRVLYFHHYFPAMLFSSMLTG [POMT2] were, in that order, 3.35 ± 0.21 and 3.37 ± 0.43.
In the case of FLPVDTSNNNGRIKQLRSGGTPIR [PTPRD], the protein stability index came to 3.33 ± 0.3 (treatment: DMSO) and 3.51 ± 0.063 (treatment: MLN4924 1 uM, 8 h).
Take FNGNYKVDSPKNFNIAGTVVKYRR [ADAMTSL2]: the protein stability index stood at 3.14 ± 0.23 (treatment: DMSO) and 3.44 ± 0.36 (treatment: MLN4924 1 uM, 8 h).
The like results for FNKGIYDIHVGLRGVPLLEWETEV [CLCN6] were, in that order, 2.13 ± 0.32 and 2.17 ± 0.44.
The like results for FQRRNMIEPRERAKFKRKYKVKLV [NOP53] were, in that order, 2.87 ± 0.46 and 3.39 ± 0.58.
Sequence FQVPVLCAVMNVVFITILIIALIA [CD69] had a protein stability index (treatment: DMSO) of 2.91 ± 0.36 and a protein stability index (treatment: MLN4924 1 uM, 8 h) of 2.96 ± 0.68.
